Drawing on PMC7881195, this text covers stoichiometry N for 2 substances.

Experiment [1] has as its target C. elegans PGL-1 N-terminal dimerization domain (NtDD), wild-type (C. elegans). Description: SEC-MALS; C. elegans PGL-1 NtDD wild-type and mutants injected at 1 mg/ml in HNT buffer (20 mM HEPES pH 7.4, 100 mM NaCl, 0.5 mM TCEP) on a SEC 650 sizing column, 0.4 ml/min.
Experiment [2] concerns the target C. elegans PGL-3 N-terminal dimerization domain (NtDD), wild-type (C. elegans). Description: SEC-MALS; C. elegans PGL-3 NtDD wild-type and mutant, 500 µl at 1 mg/ml in HNT buffer (20 mM HEPES pH 7.5, 100 mM NaCl, 0.5 mM TCEP) on Superdex 75 10/300 GL, 0.5 ml/min, 20 °C.

Regarding “C. elegans PGL-1 N-terminal dimerization domain (NtDD), wild-type (domain or fragment)”, the stoichiometry N in experiment [1] was determined as 2.

The substance “C. elegans PGL-3 N-terminal dimerization domain (NtDD), wild-type (domain or fragment)” had a stoichiometry N in experiment [2] of 2.
